Experimental data taken from publication PMC7567884.

biological target: T1, His-LexA (Synechocystis sp. PCC 6803) (UniProt P73722); test: EMSA; conditions: DIG Gel Shift Kit 2nd generation (Roche), as in Kizawa et al. (ref 9); 6% polyacrylamide gel; buffer, salt, pH and temperature not given
T1 sequence: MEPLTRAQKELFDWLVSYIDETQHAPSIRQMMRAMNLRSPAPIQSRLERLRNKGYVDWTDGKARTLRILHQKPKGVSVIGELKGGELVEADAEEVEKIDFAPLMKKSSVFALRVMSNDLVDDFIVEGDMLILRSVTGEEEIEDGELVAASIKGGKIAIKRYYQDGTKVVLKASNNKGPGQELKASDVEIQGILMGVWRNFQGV

binding, binds:
GTGGGAAAGTTCCACCTATACCATGCCTTGAAAATTGGTATGGGTCAAATCAGATAGTTCTTTTTGACTACTAATTTTGTTGCTAGCAGCGTTGTCAATCCCATCGCTCTGGTCTGGGATGCAAATGGCAGGAAAATTCTGCTCCCCTTGGGGGAAACGAGTTACGATGGGGGCGACGTTTGCTTTGTTTGCGACATAAT (double strand) [PggtB]
TAACTCGTCACACCCCATGTGGGCAATGGTATCGTATTCTGCCCAGGTTTCCACCCCTTCAGCCGTTACTCGCAACTCTAGTTCGTGGGCTAGGTTGATAATTGAGGCGGTGATAGTTTTATTCTTGGCGTTTTTGTCAATGTGACGCACAAAGCTTTGATCTATTTTCAGCACATCAAAGGGGAACTGCTGCAGATAAC (double strand) [PggpP]
TGCAATTTCCTCCTGTCCTCAGGGGACAAACTATATTAAGAAAGTTTACGGGATTATGTTGCCCGGGGAGAATTTGTCCGTGGGGGGTTTACCGACCGATCGCCGGTGAGAAGTACCAGGATAGCTTTATAAAGTTTTGTTACAATGGCAGAAGAAATTCTCAGAAACCCAGCC (double strand) [PnblB]
TGGGATCAAACAACAAGAAAAAATCAATTTACCCTGCCCATGGCAATAGTTTTAAGGTTAACAAAAAAAATAGAATTTACCGCAATCGACGGGTAAATTTCCAGAGGATACCCCCAACTCCAGAAGCAGAAATCTTGCCAGAAAAGCTTTTTCTGTTACTATACTTAACAAGTAACTACTTTTTCC (double strand) [PggpS]
TGGGCAGGGTAAATTGATTTTTTCTTGTTGTTTGATCCCATTTTCCAGTCTTTTTGACTTCCATTCAGTCAGGATAATTTTTGCAGTTTTTTTATGGAGTTTTGATAACATTGAGCTTTGCCCCCGGCGATCGCCTAGGGATAAACAATAAACGTGTGAACTAATATGCCTGGATTTATCCCTGGATTGACATTGTTTTTGCC (double strand) [PgghA]
TTTTTCACAACCTAAGACTTCCTTCCAAAAATCCATAGGGCGGTGGAAGCTTAGCTATTTTTACCATTTTGTTTTGCCACTCAAATATTTACTTAAGGTGAGGTAAAAACTCATCTTTTTTTTACTAAAAATTGCGGCTAGAAATGTAATTTCGGCAATCCCCCCACCTTCTTTCCTGAAAACCGAATCTAACCTGGAAGGGGAAATTTTAAGATAGAACCATTCAAGGGTAATCAATTCCTTCCACACATCAGGAGTTAACATT (double strand) [PhspA]
